Data reported in paper PMC7954794, “Protein context shapes the specificity of SH3 domain-mediated interactions in vivo” (Nature Communications, 2021).

System: Abp1 PPIs
Test: DHFR-PCA of Abp1 SH3-swapped baits (Fig. 2B-D, S2C, S2F);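 as to Protein-protein interaction distance between Abp1 SH3-swapped baits, to ABP1: Euclidean distance between DHFR-PCA score profiles of the baits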;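 as to Protein-protein interaction distance between Abp1 SH3-swapped baits, to BEM1-2: Euclidean distance between DHFR-PCA score profiles of the baits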;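 as to Protein-protein interaction distance between Abp1 SH3-swapped baits, to BOI1: Euclidean distance between DHFR-PCA score profiles of the baits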;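 as to Protein-protein interaction distance between Abp1 SH3-swapped baits, to BZZ1-1: Euclidean distance between DHFR-PCA score profiles of the baits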
Format: cell-based, Saccharomyces cerevisiae
How it was run: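 Interactions were scored by DHFR protein-fragment complementation. DHFR F[1,2]-tagged Abp1 strains, whose SH3 was swapped for yeast or human ortholog domains, were crossed on YPD at 30 °C for 48 h with a 1536-format array of 575 prey-DHFR F[3] strains and 40 negatives, giving four replicates per pair. PCA selection lasted 4 days after double diploid selection.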

[1] = number of PPIs, difference, Abp1 SH3-swapped with the listed SH3, Fig2D,S2F

B1: PIN3 (protein, UniProt Q06449 2-215, looked up)
[PSI+] inducibility protein 3: SASLINRSLTNIRTELDFLKGSNVISNDVYDQINKSLPAKWDPANAPRNASPASLEYVEALYQFDPQQDGDLGLKPGDKVQLLEKLSPEWYKGSCNGRTGIFPANYVKPAFSGSNGPSNLPPPPQYKAQELQQIPTQNSAASSYQQQPFPPPSTNYYQQPQQQPQQAPPPQQQQQQQQHQSSHSHLKSFGSKLGNAAIFGAGASIGSDIVNNIF
Abp1 bait with swapped SH3, distance to bait with ABP1 SH3, sheet Fig2C
  Protein-protein interaction distance between Abp1 SH3-swapped baits, to ABP1: 11.43
Distance to Abp1 bait with BBC1 SH3, sheet Fig2C
  Protein-protein interaction distance between Abp1 SH3-swapped baits, to BBC1: 11.25
Distance to Abp1 bait with BEM1-1 SH3, sheet Fig2C
  Protein-protein interaction distance between Abp1 SH3-swapped baits, to BEM1-1: 16.56
Distance to Abp1 bait with BEM1-2 SH3, sheet Fig2C
  Protein-protein interaction distance between Abp1 SH3-swapped baits, to BEM1-2: 33.69
Distance to Abp1 bait with BOI1 SH3, sheet Fig2C
  Protein-protein interaction distance between Abp1 SH3-swapped baits, to BOI1: 13.58
Distance to Abp1 bait with BOI2 SH3, sheet Fig2C
  Protein-protein interaction distance between Abp1 SH3-swapped baits, to BOI2: 17.21
Distance to Abp1 bait with BUD14 SH3, sheet Fig2C
  Protein-protein interaction distance between Abp1 SH3-swapped baits, to BUD14: 19.7
Distance to Abp1 bait with BZZ1-1 SH3, sheet Fig2C
  Protein-protein interaction distance between Abp1 SH3-swapped baits, to BZZ1-1: 8.164
Distance to Abp1 bait with BZZ1-2 SH3, sheet Fig2C
  Protein-protein interaction distance between Abp1 SH3-swapped baits, to BZZ1-2: 13.53
Distance to Abp1 bait with CDC25 SH3, sheet Fig2C
  Protein-protein interaction distance between Abp1 SH3-swapped baits, to CDC25: 28.09
Distance to Abp1 bait with CTTN SH3, sheet Fig2C
  Protein-protein interaction distance between Abp1 SH3-swapped baits, to CTTN: 14.08
Distance to Abp1 bait with CYK3 SH3, sheet Fig2C
  Protein-protein interaction distance between Abp1 SH3-swapped baits, to CYK3: 28.76
Distance to Abp1 bait with DBNL SH3, sheet Fig2C
  Protein-protein interaction distance between Abp1 SH3-swapped baits, to DBNL: 8.074
Distance to Abp1 bait with FUS1 SH3, sheet Fig2C
  Protein-protein interaction distance between Abp1 SH3-swapped baits, to FUS1: 21.08
Distance to Abp1 bait with HCLS1 SH3, sheet Fig2C
  Protein-protein interaction distance between Abp1 SH3-swapped baits, to HCLS1: 8.844
Distance to Abp1 bait with HOF1 SH3, sheet Fig2C
  Protein-protein interaction distance between Abp1 SH3-swapped baits, to HOF1: 32.38
Distance to Abp1 bait with HSE1 SH3, sheet Fig2C
  Protein-protein interaction distance between Abp1 SH3-swapped baits, to HSE1: 9.808
Distance to Abp1 bait with LSB1 SH3, sheet Fig2C
  Protein-protein interaction distance between Abp1 SH3-swapped baits, to LSB1: 5.513
Distance to Abp1 bait with LSB3 SH3, sheet Fig2C
  Protein-protein interaction distance between Abp1 SH3-swapped baits, to LSB3: 5.817
Distance to Abp1 bait with MYO3 SH3, sheet Fig2C
  Protein-protein interaction distance between Abp1 SH3-swapped baits, to MYO3: 8.374
Distance to Abp1 bait with MYO5 SH3, sheet Fig2C
  Protein-protein interaction distance between Abp1 SH3-swapped baits, to MYO5: 6.67
Distance to Abp1 bait with NBP2 SH3, sheet Fig2C
  Protein-protein interaction distance between Abp1 SH3-swapped baits, to NBP2: 18.8
Distance to Abp1 bait with PEX13 SH3, sheet Fig2C
  Protein-protein interaction distance between Abp1 SH3-swapped baits, to PEX13: 5.433
Distance to Abp1 bait with PIN3 SH3, sheet Fig2C
  Protein-protein interaction distance between Abp1 SH3-swapped baits, to PIN3: 0.00
Distance to Abp1 bait with RVS167 SH3, sheet Fig2C
  Protein-protein interaction distance between Abp1 SH3-swapped baits, to RVS167: 5.294
Distance to Abp1 bait with SDC25 SH3, sheet Fig2C
  Protein-protein interaction distance between Abp1 SH3-swapped baits, to SDC25: 34.35
Distance to Abp1 bait with SHO1 SH3, sheet Fig2C
  Protein-protein interaction distance between Abp1 SH3-swapped baits, to SHO1: 9.004
Distance to Abp1 bait with SLA1-1 SH3, sheet Fig2C
  Protein-protein interaction distance between Abp1 SH3-swapped baits, to SLA1-1: 30.57
Distance to Abp1 bait with SLA1-2 SH3, sheet Fig2C
  Protein-protein interaction distance between Abp1 SH3-swapped baits, to SLA1-2: 21.49
Distance to Abp1 bait with SLA1-3 SH3, sheet Fig2C
  Protein-protein interaction distance between Abp1 SH3-swapped baits, to SLA1-3: 6.016
Distance to Abp1 bait with YSC84 SH3, sheet Fig2C
  Protein-protein interaction distance between Abp1 SH3-swapped baits, to YSC84: 5.862
[1]
  PPIs gained by Abp1 - SH3-dependent PPIs gained by Abp1: 29
  SH3-dependent PPIs - SH3-dependent PPIs gained by Abp1: 13
Number of PPIs, Abp1 SH3-swapped with the listed SH3, DHFR-PCA, Fig2D,S2F
  SH3-dependent PPIs gained by Abp1: 0
